What was measured:
[1] = target: T1, ProQ (minimal ProQ, FinO domain with short N- and C-terminal extensions) (Neisseria meningitidis) (UniProt Q9JY98); experiment: EMSA; conditions: 25 mM Tris pH 7.5, 150 mM NaCl, 5% glycerol, 1 mM MgCl2, 1 nM 32P-RNA, ProQ up to 50 nM, 30 min at room temperature; 6% native gel at 4 C
T1 sequence: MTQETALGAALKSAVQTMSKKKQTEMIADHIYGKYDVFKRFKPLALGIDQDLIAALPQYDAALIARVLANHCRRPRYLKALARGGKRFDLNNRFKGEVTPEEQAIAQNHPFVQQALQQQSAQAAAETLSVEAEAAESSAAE

[2] = target: T2, ProQ (minimal ProQ, FinO domain with short N- and C-terminal extensions) (Neisseria meningitidis, UniProt Q9JY98 1-141); experiment: EMSA; max bound 53%; Hill fit; 25 mM Tris pH 7.5, 150 mM NaCl, 5% glycerol, 1 mM MgCl2, 1 nM 32P-RNA, ProQ up to 50 nM, 30 min at room temperature; 6% native gel at 4 C; conditions: protein: recombinant; tags: N-terminal His6-TEV, cleaved; one extra N-terminal Ser remains; label: 5'-32P; terminator hairpin, GAAA loop
T2 sequence: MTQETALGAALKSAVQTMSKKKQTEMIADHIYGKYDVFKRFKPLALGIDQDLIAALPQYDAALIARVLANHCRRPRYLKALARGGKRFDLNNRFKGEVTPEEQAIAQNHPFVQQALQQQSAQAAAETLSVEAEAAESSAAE

[3] = target: T2, ProQ (minimal ProQ, FinO domain with …); experiment: EMSA; max bound 80%; 25 mM Tris pH 7.5, 150 mM NaCl, 5% glycerol, 1 mM MgCl2, 1 nM 32P-RNA, ProQ up to 50 nM, 30 min at room temperature; 6% native gel at 4 C; conditions: protein: recombinant; tags: N-terminal His6-TEV, cleaved; one extra N-terminal Ser remains; label: 5'-32P; hairpin, GAAA loop
[4] = target: T2, ProQ (minimal ProQ, FinO domain with …); experiment: EMSA; max bound 85%; 25 mM Tris pH 7.5, 150 mM NaCl, 5% glycerol, 1 mM MgCl2, 1 nM 32P-RNA, ProQ up to 50 nM, 30 min at room temperature; 6% native gel at 4 C; conditions: protein: recombinant; tags: N-terminal His6-TEV, cleaved; one extra N-terminal Ser remains; label: 5'-32P; terminator hairpin, 5-U tail
[5] = target: T2, ProQ (minimal ProQ, FinO domain with …); experiment: EMSA; max bound 64%; 25 mM Tris pH 7.5, 150 mM NaCl, 5% glycerol, 1 mM MgCl2, 1 nM 32P-RNA, ProQ up to 50 nM, 30 min at room temperature; 6% native gel at 4 C; conditions: protein: recombinant; tags: N-terminal His6-TEV, cleaved; one extra N-terminal Ser remains; label: 5'-32P; hairpin, GAAA loop
[6] = target: T2, ProQ (minimal ProQ, FinO domain with …); experiment: EMSA; max bound 53%; 25 mM Tris pH 7.5, 150 mM NaCl, 5% glycerol, 1 mM MgCl2, 1 nM 32P-RNA, ProQ up to 50 nM, 30 min at room temperature; 6% native gel at 4 C; conditions: protein: recombinant; tags: N-terminal His6-TEV, cleaved; one extra N-terminal Ser remains; label: 5'-32P; terminator hairpin, 4-U tail
[7] = target: T2, ProQ (minimal ProQ, FinO domain with …); experiment: EMSA; max bound 88%; 25 mM Tris pH 7.5, 150 mM NaCl, 5% glycerol, 1 mM MgCl2, 1 nM 32P-RNA, ProQ up to 50 nM, 30 min at room temperature; 6% native gel at 4 C; conditions: protein: recombinant, tags: N-terminal His6-TEV, cleaved, one extra N-terminal Ser remains, label: 5'-32P, terminator hairpin
[8] = target: T2, ProQ (minimal ProQ, FinO domain with …); experiment: EMSA; max bound 86%; 25 mM Tris pH 7.5, 150 mM NaCl, 5% glycerol, 1 mM MgCl2, 1 nM 32P-RNA, ProQ up to 50 nM, 30 min at room temperature; 6% native gel at 4 C; conditions: protein: recombinant; tags: N-terminal His6-TEV, cleaved; one extra N-terminal Ser remains; label: 5'-32P
[9] = target: T2, ProQ (minimal ProQ, FinO domain with …); experiment: EMSA; max bound 90%; 25 mM Tris pH 7.5, 150 mM NaCl, 5% glycerol, 1 mM MgCl2, 1 nM 32P-RNA, ProQ up to 50 nM, 30 min at room temperature; 6% native gel at 4 C; conditions: protein: recombinant; tags: N-terminal His6-TEV, cleaved; one extra N-terminal Ser remains; label: 5'-32P; terminator hairpin, 5-U tail
[10] = target: T2, ProQ (minimal ProQ, FinO domain with …); experiment: EMSA; max bound 91%; 25 mM Tris pH 7.5, 150 mM NaCl, 5% glycerol, 1 mM MgCl2, 1 nM 32P-RNA, ProQ up to 50 nM, 30 min at room temperature; 6% native gel at 4 C; conditions: protein: recombinant; tags: N-terminal His6-TEV, cleaved; one extra N-terminal Ser remains; label: 5'-32P; hairpin, GAAA loop
[11] = target: T2, ProQ (minimal ProQ, FinO domain with …); experiment: EMSA; max bound 79%; 25 mM Tris pH 7.5, 150 mM NaCl, 5% glycerol, 1 mM MgCl2, 1 nM 32P-RNA, ProQ up to 50 nM, 30 min at room temperature; 6% native gel at 4 C; conditions: protein: recombinant; tags: N-terminal His6-TEV, cleaved; one extra N-terminal Ser remains; label: 5'-32P; terminator hairpin, 6-U tail
[12] = target: T2, ProQ (minimal ProQ, FinO domain with …); experiment: EMSA; max bound 89%; 25 mM Tris pH 7.5, 150 mM NaCl, 5% glycerol, 1 mM MgCl2, 1 nM 32P-RNA, ProQ up to 50 nM, 30 min at room temperature; 6% native gel at 4 C; conditions: protein: recombinant, tags: N-terminal His6-TEV, cleaved, one extra N-terminal Ser remains, label: 5'-32P, terminator hairpin
[13] = target: T2, ProQ (minimal ProQ, FinO domain with …); experiment: EMSA; max bound 66%; estimated, not accurately fit; 25 mM Tris pH 7.5, 150 mM NaCl, 5% glycerol, 1 mM MgCl2, 1 nM 32P-RNA, ProQ up to 50 nM, 30 min at room temperature; 6% native gel at 4 C; conditions: protein: recombinant; tags: N-terminal His6-TEV, cleaved; one extra N-terminal Ser remains; label: 5'-32P; terminator hairpin, 7 nt 3' tail
[14] = target: T2, ProQ (minimal ProQ, FinO domain with …); experiment: EMSA; undetected up to 50 nM ProQ; 25 mM Tris pH 7.5, 150 mM NaCl, 5% glycerol, 1 mM MgCl2, 1 nM 32P-RNA, ProQ up to 50 nM, 30 min at room temperature; 6% native gel at 4 C; conditions: protein: recombinant; tags: N-terminal His6-TEV, cleaved; one extra N-terminal Ser remains; label: 5'-32P; terminator hairpin, no tail
[15] = target: T2, ProQ (minimal ProQ, FinO domain with …); experiment: EMSA; max bound 81%; 25 mM Tris pH 7.5, 150 mM NaCl, 5% glycerol, 1 mM MgCl2, 1 nM 32P-RNA, ProQ up to 50 nM, 30 min at room temperature; 6% native gel at 4 C; conditions: protein: recombinant; tags: N-terminal His6-TEV, cleaved; one extra N-terminal Ser remains; label: 5'-32P; terminator hairpin, GAAA loop
[16] = target: T2, ProQ (minimal ProQ, FinO domain with …); experiment: EMSA; max bound 58%; 25 mM Tris pH 7.5, 150 mM NaCl, 5% glycerol, 1 mM MgCl2, 1 nM 32P-RNA, ProQ up to 50 nM, 30 min at room temperature; 6% native gel at 4 C; conditions: protein: recombinant; tags: N-terminal His6-TEV, cleaved; one extra N-terminal Ser remains; label: 5'-32P; terminator hairpin, 4-U tail

pnp-5' gave a Kd [1] of 7900 pM.

iga-3' gave a Kd [1] of 300 pM.

Molecule carA-5' has a Kd [1] of 1300 pM.

B1: AniS-loop (structured_RNA)
RNA: GGUUUCCUCUUGAUGUGUGUGUUUGGGUGUGGCGAAAGCCACCCCUUUUUUUU
In the case of B1, the Kd [2] is reported as 390 ± 180 pM.

In the case of GGGAUUUCAGUUUGAAAGCAAAGCCUGAAAAGGCUUUUUU (structured_RNA) [rpmG-loop-40], the Kd [3] is reported as 1200 ± 1500 pM.

GGGAUUUCAGUUUGAAAGCAAAGCCUCCGACUGUUCGGAGGCUUUUU (structured_RNA) [rpmG-U5] was tested, and the Kd [4] was 470 ± 270 pM.

GGGAUUUCAGUUUGAAAGCAAAGCGAAAGCUUUUUU (structured_RNA) [rpmG-loop-36] gave a Kd [5] of 130 ± 140 pM.

In the case of GGUUUCCUCUUGAUGUGUGUGUUUGGGUGUGGCUGCCGCCACCCCUUUU (structured_RNA) [AniS-U4], the Kd [6] is reported as 900 ± 580 pM.

B2: AniS-U7 (structured_RNA)
RNA: GGUUUCCUCUUGAUGUGUGUGUUUGGGUGUGGCUGCCGCCACCCCUUUUUUU
In the case of B2, the Kd ([7]; 7-U tail) is reported as 820 ± 210 pM.

B3: rpmG-U6AU2 (structured_RNA)
RNA: GGGAUUUCAGUUUGAAAGCAAAGCCUCCGACUGUUCGGAGGCUUUUUUAUU
Molecule B3 has a Kd ([7]; 9 nt 3' tail) of 220 ± 260 pM.

B4: intergenic (structured_RNA)
RNA: GGUAAUGCCGAAAGGGGUUUGACGAUGCCGGCGUGCGCUGUCAAACCCUUUUUCU
In the case of B4, the Kd [8] is reported as 1400 ± 1000 pM.

Work on GGUUUCCUCUUGAUGUGUGUGUUUGGGUGUGGCUGCCGCCACCCCUUUUU (structured_RNA) [AniS-U5] yielded a Kd [9] of 6500 ± 1300 pM.

Molecule GGGAUUUCAGUUUGAAAGCAAAGCCUCCGAAAGGAGGCUUUUUU (structured_RNA) [rpmG-loop-44] has a Kd [10] of 4000 ± 2000 pM.

B5: AniS-U6 (structured_RNA)
RNA: GGUUUCCUCUUGAUGUGUGUGUUUGGGUGUGGCUGCCGCCACCCCUUUUUU
Work on B5 yielded a Kd [11] of 700 ± 620 pM.

In the case of GGGAUUUCAGUUUGAAAGCAAAGCCUCCGACUGUUCGGAGGCUUUUUUAU (structured_RNA) [rpmG-U6AU], the Kd ([12]; 8 nt 3' tail) is reported as 200 ± 230 pM.

For GGGAUUUCAGUUUGAAAGCAAAGCCUCCGACUGUUCGGAGGCUUUUUUA (structured_RNA) [rpmG-U6A], the Kd [13] was less than 500 pM.

GGUUUCCUCUUGAUGUGUGUGUUUGGGUGUGGCUGCCGCCACCCC (structured_RNA) [AniS-noU]: no binding [14].

With GGGAUUUCAGUUUGAAAGCAAAGCCUCCGAGAAAUCGGAGGCUUUUUU (structured_RNA) [rpmG-loop] the Kd [15] was 500 ± 340 pM.

With GGGAUUUCAGUUUGAAAGCAAAGCCUCCGACUGUUCGGAGGCUUUUUU (structured_RNA) [rpmG-3'] the Kd ([12]; 6-U 3' tail, 3 U paired with upstream A) was 1000 ± 520 pM.

For GGGAUUUCAGUUUGAAAGCAAAGCCUCCGACUGUUCGGAGGCUUUU (structured_RNA) [rpmG-U4], the Kd [16] was 2600 ± 3500 pM.

— PMC11912907, “RNA recognition by minimal ProQ from Neisseria meningitidis”
